Experimental findings from patent US20220064329A1 (Novo Nordisk, published 2022) are described below.

B1: VH SEQ ID NO 554 / VL SEQ ID NO 486 (antibody, IgG4, V domains shown)
VH: QVQLQESGPGLVKPSDTLSLTCAVSGYSISSDSAWSWIRQFPGKGLEWIGYIQYSGSTNYNPSLKSRVTMSVDTSKNQFSLKLSSVTALDTAVYYCARSVNYYGNSFAVGPWGQGTLVTVSS
VL: EIVLTQSPATLSLSPGERATLSCRASQGVSDYLHWYQQKPGQAPRLLIKYASQPATGIPARFSGSGSGTDFTLTISSLEPEDFGVYYCQNGHSFPLTFGQGTKLEIK
notes: humanized 11F2; IgG4 S228P/kappa
B2: VH SEQ ID NO 562 / VL SEQ ID NO 326 (antibody, IgG4, V domains shown)
VH: QVQLQESGPGLVKPSDTLSLTCAVSGYSISSDSAWSWIRQPPGKGLEWIGYIQYSGSTNYNPSLKSRVTMSRDTSKNQFSLKLSSVTALDTAVYYCARSVNYYGNSFAVGPWGQGTLVTVSS
VL: EIVLTQSPATLSLSPGERATLSCRASQGISDYLHWYQQKPGEAPRLLIKYTSQPATGIPARFSGSGSGTDFTLTISSLEPEDFGVYYCQNGHSFPLTFGAGTKLELK
notes: as for B1
B3: VH SEQ ID NO 562 / VL SEQ ID NO 342 (antibody, IgG4, V domains shown)
VH: QVQLQESGPGLVKPSDTLSLTCAVSGYSISSDSAWSWIRQPPGKGLEWIGYIQYSGSTNYNPSLKSRVTMSRDTSKNQFSLKLSSVTALDTAVYYCARSVNYYGNSFAVGPWGQGTLVTVSS
VL: EIVLTQSPATLSLSPGERATLSCRASQGISDYLHWYQQKPGQAPRLLIKYTSQPATGIPARFSGSGSGRDFTLTISSLEPEDFAVYYCQNGHSFPLTFGAGTKLELK
notes: as for B1
B4: VH SEQ ID NO 562 / VL SEQ ID NO 390 (antibody, IgG4, V domains shown)
VH: QVQLQESGPGLVKPSDTLSLTCAVSGYSISSDSAWSWIRQPPGKGLEWIGYIQYSGSTNYNPSLKSRVTMSRDTSKNQFSLKLSSVTALDTAVYYCARSVNYYGNSFAVGPWGQGTLVTVSS
VL: EIVLTQSPATLSLSPGERATLSCRASQGVSDYLAWYQQKPGEAPRLLIKYASQPATGIPARFSGSGSGTDFTLTISSLEPEDFAVYYCQNGHSFPLTFGQGTKLEIK
notes: as for B1
B5: VH SEQ ID NO 562 / VL SEQ ID NO 310 (antibody, IgG4, V domains shown)
VH: QVQLQESGPGLVKPSDTLSLTCAVSGYSISSDSAWSWIRQPPGKGLEWIGYIQYSGSTNYNPSLKSRVTMSRDTSKNQFSLKLSSVTALDTAVYYCARSVNYYGNSFAVGPWGQGTLVTVSS
VL: EIVLTQSPATLSLSPGERATLSCRASQGISDYLAWYQQKPGQAPRLLIKYASQPATGIPARFSGSGSGTDFTLTISSLEPEDFAVYYCQNGHSFPLTFGQGTKLEIK
notes: as for B1
B6: VH SEQ ID NO 562 / VL SEQ ID NO 406 (antibody, IgG4, V domains shown)
VH: QVQLQESGPGLVKPSDTLSLTCAVSGYSISSDSAWSWIRQPPGKGLEWIGYIQYSGSTNYNPSLKSRVTMSRDTSKNQFSLKLSSVTALDTAVYYCARSVNYYGNSFAVGPWGQGTLVTVSS
VL: EIVLTQSPATLSLSPGERATLSCRASQGVSDYLAWYQQKPGQAPRLLIKYASQPATGIPARFSGSGSGTDFTLTISSLEPEDFAVYYCQNGHSFPLTFGAGTKLEIK
notes: as for B1
B7: VH SEQ ID NO 562 / VL SEQ ID NO 318 (antibody, IgG4, V domains shown)
VH: QVQLQESGPGLVKPSDTLSLTCAVSGYSISSDSAWSWIRQPPGKGLEWIGYIQYSGSTNYNPSLKSRVTMSRDTSKNQFSLKLSSVTALDTAVYYCARSVNYYGNSFAVGPWGQGTLVTVSS
VL: EIVLTQSPATLSLSPGERATLSCRASQGISDYLHWYQQKPGEAPRLLIKYTSQPATGIPARFSGSGSGTDFTLTISSLEPEDFAVYYCQNGHSFPLTFGQGTKLEIK
notes: as for B1
B8: VH SEQ ID NO 562 / VL SEQ ID NO 414 (antibody, IgG4, V domains shown)
VH: QVQLQESGPGLVKPSDTLSLTCAVSGYSISSDSAWSWIRQPPGKGLEWIGYIQYSGSTNYNPSLKSRVTMSRDTSKNQFSLKLSSVTALDTAVYYCARSVNYYGNSFAVGPWGQGTLVTVSS
VL: EIVLTQSPATLSLSPGERATLSCRASQGVSDYLAWYQQKPGQAPRLLIKYASQPATGIPARFSGSGSGTDFTLTISSLEPEDFAVYYCQNGHSFPLTFGQGTKLEIK
notes: as for B1
B9: VH SEQ ID NO 562 / VL SEQ ID NO 334 (antibody, IgG4, V domains shown)
VH: QVQLQESGPGLVKPSDTLSLTCAVSGYSISSDSAWSWIRQPPGKGLEWIGYIQYSGSTNYNPSLKSRVTMSRDTSKNQFSLKLSSVTALDTAVYYCARSVNYYGNSFAVGPWGQGTLVTVSS
VL: EIVLTQSPATLSLSPGERATLSCRASQGISDYLHWYQQKPGQAPRLLIKYASQPATGIPARFSGSGSGTDFTLTISSLEPEDFAVYYCQNGHSFPLTFGQGTKLEIK
notes: as for B1
B10: VH SEQ ID NO 562 / VL SEQ ID NO 366 (antibody, IgG4, V domains shown)
VH: QVQLQESGPGLVKPSDTLSLTCAVSGYSISSDSAWSWIRQPPGKGLEWIGYIQYSGSTNYNPSLKSRVTMSRDTSKNQFSLKLSSVTALDTAVYYCARSVNYYGNSFAVGPWGQGTLVTVSS
VL: EIVLTQSPATLSLSPGERATLSCRASQGLSDYLAWYQQKPGEAPRLLIKYASQPATGIPARFSGSGSGTDFTLTISSLEPEDFAVYYCQNGHSFPLTFGQGTKLEIK
notes: as for B1
B11: VH SEQ ID NO 554 / VL SEQ ID NO 494 (antibody, IgG4, V domains shown)
VH: QVQLQESGPGLVKPSDTLSLTCAVSGYSISSDSAWSWIRQFPGKGLEWIGYIQYSGSTNYNPSLKSRVTMSVDTSKNQFSLKLSSVTALDTAVYYCARSVNYYGNSFAVGPWGQGTLVTVSS
VL: EIVLTQSPATLSLSPGERATLSCRASQGVSDYLHWYQQKPGQAPRLLIKYASQPATGIPARFSGSGSGTDFTLTISSLEPEDVAVYYCQNGHSFPLTFGQGTKLEIK
notes: as for B1
B12: VH SEQ ID NO 562 / VL SEQ ID NO 358 (antibody, IgG4, V domains shown)
VH: QVQLQESGPGLVKPSDTLSLTCAVSGYSISSDSAWSWIRQPPGKGLEWIGYIQYSGSTNYNPSLKSRVTMSRDTSKNQFSLKLSSVTALDTAVYYCARSVNYYGNSFAVGPWGQGTLVTVSS
VL: EIVLTQSPATLSLSPGERATLSCRASQGISDYLHWYQQKPGQAPRLLIKYTSQPATGIPARFSGSGSGTDFTLTISSLEPEDFAVYYCQNGHSFPLTFGQGTKLEIK
notes: as for B1
B13: VH SEQ ID NO 562 / VL SEQ ID NO 350 (antibody, IgG4, V domains shown)
VH: QVQLQESGPGLVKPSDTLSLTCAVSGYSISSDSAWSWIRQPPGKGLEWIGYIQYSGSTNYNPSLKSRVTMSRDTSKNQFSLKLSSVTALDTAVYYCARSVNYYGNSFAVGPWGQGTLVTVSS
VL: EIVLTQSPATLSLSPGERATLSCRASQGISDYLHWYQQKPGQAPRLLIKYTSQPATGIPARFSGSGSGTDFTLTISSLEPEDFAVYYCQNGHSFPLTFGAGTKLELK
notes: as for B1
B14: VH SEQ ID NO 554 / VL SEQ ID NO 502 (antibody, IgG4, V domains shown)
VH: QVQLQESGPGLVKPSDTLSLTCAVSGYSISSDSAWSWIRQFPGKGLEWIGYIQYSGSTNYNPSLKSRVTMSVDTSKNQFSLKLSSVTALDTAVYYCARSVNYYGNSFAVGPWGQGTLVTVSS
VL: EIVLTQSPATLSLSPGERATLSCRASQGVSDYLHWYQQKPGQAPRLLIKYTSQPATGIPARFSGSGSGTDFTLTISSLEPEDFAVYYCQNGHSFPLTFGQGTKLEIK
notes: as for B1
B15: VH SEQ ID NO 562 / VL SEQ ID NO 382 (antibody, IgG4, V domains shown)
VH: QVQLQESGPGLVKPSDTLSLTCAVSGYSISSDSAWSWIRQPPGKGLEWIGYIQYSGSTNYNPSLKSRVTMSRDTSKNQFSLKLSSVTALDTAVYYCARSVNYYGNSFAVGPWGQGTLVTVSS
VL: EIVLTQSPATLSLSPGERATLSCRASQGLSDYLHWYQQKPGEAPRLLIKYASQPATGIPARFSGSGSGTDFTLTISSLEPEDFAVYYCQNGHSFPLTFGQGTKLEIK
notes: as for B1

The test concerns the target T1, recombinant human activated Factor VII (FVIIa) (human, UniProt P08709 61-212; P08709 213-466, ten glutamate residues of the Gla domain may be gamma-carboxylated).
T1 construct: chains tethered by a disulfide bond; also called Factor VIIa; rFVIIa
T1 sequence 1: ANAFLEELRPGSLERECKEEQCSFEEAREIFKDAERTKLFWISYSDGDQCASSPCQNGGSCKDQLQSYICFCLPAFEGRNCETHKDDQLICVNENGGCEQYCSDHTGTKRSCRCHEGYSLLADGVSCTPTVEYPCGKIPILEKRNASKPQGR
T1 sequence 2: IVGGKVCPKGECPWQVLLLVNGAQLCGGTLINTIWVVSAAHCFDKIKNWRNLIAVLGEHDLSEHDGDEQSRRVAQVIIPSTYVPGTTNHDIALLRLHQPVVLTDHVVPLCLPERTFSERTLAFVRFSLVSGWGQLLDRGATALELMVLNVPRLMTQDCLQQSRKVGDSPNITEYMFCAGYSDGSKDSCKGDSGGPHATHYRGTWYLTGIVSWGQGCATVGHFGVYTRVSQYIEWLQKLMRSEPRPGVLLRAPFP
Kind of test: BLI (Fortebio). A general note: BLI is a label-free optical method that tracks binding on a fibre tip over time.
Consider B1, for which the Kd – broadly, the concentration at which binding is half-saturated – came to 19 nM.
For B2, the Kd turned out to be 0.78 nM.
For the molecule B3, the Kd is 1.3 nM.
As to B4, the Kd was 10 nM.
Consider B5, for which the Kd was 6.4 nM.
The result for B6 reads 7.7 nM.
Consider B7, for which the Kd was 0.92 nM.
For the molecule B8, the Kd came to 8.8 nM.
B9: the Kd amounted to 1.2 nM.
With B10, the Kd was 8.3 nM.
For the molecule B11, the dissociation constant (Kd) was 22 nM.
As for B12, the Kd worked out at 0.95 nM.
For B13, the equilibrium dissociation constant (Kd) was 0.93 nM.
On to B14, for which the Kd was found to be 18 nM.
For B15, the Kd was 1.2 nM.
